These results are taken from publication PMC4549301 (2015).

B1: GST–HCF-1rep1, wild type (HCF-1 residues 867–1071) [human] / Recombinant human O-linked β-N-acetylglucosamine transferase (OGT), wild type [human] (parent complex)
chain 1: PAVTTLVVKGTTGVTTLGTVTGTVSTSLAGAGGHSTSASLATPITTLGTIATLSSQVINPTAITVSAAQTTLTAAGGLTTPTITMQPVSQPTQVTLITAPSGVEAQPVHDLPVSILASPTTEQPTATVTIADSGQGDVQPGTVTLVCSNPPCETHETGTTNTATTTVVANLGGHPQPTQVQFVCDRQEAAASLVTSTVGQQNGSV
chain 2: MASSVGNVADSTGLAELAHREYQAGDFEAAERHCMQLWRQEPDNTGVLLLLSSIHFQCRRLDRSAHFSTLAIKQNPLLAEAYSNLGNVYKERGQLQEAIEHYRHALRLKPDFIDGYINLAAALVAAGDMEGAVQAYVSALQYNPDLYCVRSDLGNLLKALGRLEEAKACYLKAIETQPNFAVAWSNLGCVFNAQGEIWLAIHHFEKAVTLDPNFLDAYINLGNVLKEARIFDRAVAAYLRALSLSPNHAVVHGNLACVYYEQGLIDLAIDTYRRAIELQPHFPDAYCNLANALKEKGSVAEAEDCYNTALRLCPTHADSLNNLANIKREQGNIEEAVRLYRKALEVFPEFAAAHSNLASVLQQQGKLQEALMHYKEAIRISPTFADAYSNMGNTLKEMQDVQGALQCYTRAIQINPAFADAHSNLASIHKDSGNIPEAIASYRTALKLKPDFPDAYCNLAHCLQIVCDWTDYDERMKKLVSIVADQLEKNRLPSVHPHHSMLYPLSHGFRKAIAERHGNLCLDKINVLHKPPYEHPKDLKLSDGRLRVGYVSSDFGNHPTSHLMQSIPGMHNPDKFEVFCYALSPDDGTNFRVKVMAEANHFIDLSQIPCNGKAADRIHQDGIHILVNMNGYTKGARNELFALRPAPIQAMWLGYPGTSGALFMDYIITDQETSPAEVAEQYSEKLAYMPHTFFIGDHANMFPHLKKKAVIDFKSNGHIYDNRIVLNGIDLKAFLDSLPDVKIVKMKCPDGGDNADSSNTALNMPVIPMNTIAEAVIEMINRGQIQITINGFSISNGLATTQINNKAATGEEVPRTIIVTTRSQYGLPEDAIVYCNFNQLYKIDPSTLQMWANILKRVPNSVLWLLRFPAVGEPNIQQYAQNMGLPQNRIIFSPVAPKEEHVRRGQLADVCLDTPLCNGHTTGMDVLWAGTPMVTMPGETLASRVAASQLTCLGCLELIAKNRQEYEDIAVKLGTDLEYLKKVRGKVWKQRISSPLFNTKQYTMELERLYLQMWEHYAAGNKPDHMIKPVEVTESA

The variants in this assay derive from B1. Kind of assay: in vitro HCF-1rep1-OGT binding assay (OGT pull-down, quantified immunoblot); in the presence of UDP-GlcNAc; read off a plot. For orientation: A western blot detects proteins with antibodies after separation by electrophoresis.
In the case of chain 1 PAVTTLVVKGTTGVTTLGTVTGTVSTSLAGAGGHSTSASLATPITTLGTIATLSSQVINPTAITVSAAQTTLTAAGGLTTPTITMQPVSQPTQVTLITAPSGVEAQPVHDLPVSILASPTTEQPTATVTIADSGQGDVQPGTVTLVCSNPPCEAHETGTTNTATTTVVANLGGHPQPTQVQFVCDRQEAAASLVTSTVGQQNGSV [chain 1 T154A], the screen value is around 0.3 log2 fold change.

In the case of chain 1 PAVTTLVVKGTTGVTTLGTVTGTVSTSLAGAGGHSTSASLATPITTLGTIATLSSQVINPTAITVSAAQTTLTAAGGLTTPTITMQPVSQPTQVTLITAPSGVEAQPVHDLPVSILASPTTEQPTATVTIADSGQGDVQPGTVTLVCSNAPCETHETGTTNTATTTVVANLGGHPQPTQVQFVCDRQEAAASLVTSTVGQQNGSV [chain 1 P150A], the screen value was around -1.7 log2 fold change.

As for chain 1 PAVTTLVVKGTTGVTTLGTVTGTVSTSLAGAGGHSTSASLATPITTLGTIATLSSQVINPTAITVSAAQTTLTAAGGLTTPTITMQPVSQPTQVTLITAPSGVEAQPVHDLPVSILASPTTEQPTATVTIADSGQGDVQPGTVTLVCSNPPCETHATGTTNTATTTVVANLGGHPQPTQVQFVCDRQEAAASLVTSTVGQQNGSV [chain 1 E156A], the screen value is around -1.1 log2 fold change.

chain 1 PAVTTLVVKGTTGVTTLGTVTGTVSTSLAGAGGHSTSASLATPITTLGTIATLSSQVINPTAITVSAAQTTLTAAGGLTTPTITMQPVSQPTQVTLITAPSGVEAQPVHDLPVSILASPTTEQPTATVTIADSGQGDVQPGTVTLVCSNPACETHETGTTNTATTTVVANLGGHPQPTQVQFVCDRQEAAASLVTSTVGQQNGSV [chain 1 P151A]: the screen value was around -0.7 log2 fold change.

Consider chain 1 PAVTTLVVKGTTGVTTLGTVTGTVSTSLAGAGGHSTSASLATPITTLGTIATLSSQVINPTAITVSAAQTTLTAAGGLTTPTITMQPVSQPTQVTLITAPSGVEAQPVHDLPVSILASPTTEQPTATVTIADSGQGDVQPGTVTLVCSNPPAETHETGTTNTATTTVVANLGGHPQPTQVQFVCDRQEAAASLVTSTVGQQNGSV [chain 1 C152A], for which the screen value is around -0.55 log2 fold change.

On to chain 1 PAVTTLVVKGTTGVTTLGTVTGTVSTSLAGAGGHSTSASLATPITTLGTIATLSSQVINPTAITVSAAQTTLTAAGGLTTPTITMQPVSQPTQVTLITAPSGVEAQPVHDLPVSILASPTTEQPTATVTIADSGQGDVQPGTVTLVCSNPPCETHEAGTTNTATTTVVANLGGHPQPTQVQFVCDRQEAAASLVTSTVGQQNGSV [chain 1 T157A], for which the screen value was around -3 log2 fold change.

Regarding chain 1 PAVTTLVVKGTTGVTTLGTVTGTVSTSLAGAGGHSTSASLATPITTLGTIATLSSQVINPTAITVSAAQTTLTAAGGLTTPTITMQPVSQPTQVTLITAPSGVEAQPVHDLPVSILASPTTEQPTATVTIADSGQGDVQPGTVTLVCSNPPCETAETGTTNTATTTVVANLGGHPQPTQVQFVCDRQEAAASLVTSTVGQQNGSV [chain 1 H155A], the screen value is around -0.5 log2 fold change.
